# Test results from article PMC10836398, “Structural flexibility of Toscana virus nucleoprotein in the presence of a single-chain camelid antibody” (Acta Crystallographica. Section D, Structural Biology, 2024).
# B1: single-chain camelid antibody (VHH) targeting the TOSV N protein (VHH)
# VHH: QVQLVESGGGSVQAGGSLRLSCAASGDAGRRYCMAWFRQAPGKEREGVAFISTANGRTDYVDSVKGRFTISQNSAKNTVYLQMNSLKPEDTAMYYCASRGYGYLSCSSYSLAAYNYWGQGTQVTVSS
# notes: Selected by phage display from a llama immunised with TOSV N; The clone has no printed name; also called nanobody; source: E. coli WK6, periplasmic extract, purified (IMAC)
# Target: T1, Toscana virus nucleoprotein (Toscana virus, UniProt P21701)
# T1 construct: Nucleoprotein (N) of Toscana virus, coded by the S segment; Monomeric fractions of N were pooled for complex formation; also called TOSV N; N protein; source: E. coli, purified under non-denaturing conditions (1 M NaCl and 3 M urea in the lysis buffer to remove nucleic acids)
# Assay: crystal structure; N–VHH complex at 13 mg/ml, hanging drop, 293 K, 0.5 M MES pH 6.5, 25% PEG 2000; space group P4(1)2(1)2, 3.8 Å
# Settings: both partners purified
# T1 sequence (P21701 2-253): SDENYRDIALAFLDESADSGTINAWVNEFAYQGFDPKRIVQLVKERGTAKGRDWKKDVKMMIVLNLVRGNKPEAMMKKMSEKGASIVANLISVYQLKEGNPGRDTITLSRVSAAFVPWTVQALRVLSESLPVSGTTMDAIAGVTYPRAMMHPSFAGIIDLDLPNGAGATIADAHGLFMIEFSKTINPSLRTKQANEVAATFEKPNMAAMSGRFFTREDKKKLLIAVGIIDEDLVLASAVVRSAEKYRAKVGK
binder,measurement,value
B1,binding result,binds
